From US20200247855A1 (published 2020)
Changes are numbered by the printed parent chain.

Key:
CXCL9_HUMAN = biological target: T1, CXCL9_HUMAN (human, UniProt Q07325 23-125); test: YSD FACS
T1 sequence: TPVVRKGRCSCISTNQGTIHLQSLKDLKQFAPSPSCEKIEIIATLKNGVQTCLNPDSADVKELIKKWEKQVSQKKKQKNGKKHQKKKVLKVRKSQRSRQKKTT

CXCL10_HUMAN [1] = biological target: T2, CXCL10_HUMAN (human, UniProt P02778 22-98); test: YSD
T2 sequence: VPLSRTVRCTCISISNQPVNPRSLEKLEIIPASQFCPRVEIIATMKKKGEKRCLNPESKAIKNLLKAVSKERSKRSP

CXCL12_HUMAN = CXCL12_HUMAN (human, UniProt P48061 22-89); test: YSD FACS
Sequence of CXCL12_HUMAN (P48061 22-89 limits assumed): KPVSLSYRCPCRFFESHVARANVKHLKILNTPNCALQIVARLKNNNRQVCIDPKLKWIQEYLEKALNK

P985_AMBPA = biological target: T3, P985_AMBPA (Amblyomma parvum, UniProt A0A023FT45 25-132); test: BLI
T3 construct: His-tagged in BLI
T3 sequence: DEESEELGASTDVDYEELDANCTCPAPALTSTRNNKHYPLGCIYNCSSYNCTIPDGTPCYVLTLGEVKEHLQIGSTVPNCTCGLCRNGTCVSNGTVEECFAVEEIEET

P991_AMBCA = biological target: T4, P991_AMBCA (Amblyomma cajennense, UniProt A0A023FFD0 29-136); test: BLI
T4 construct: His-tagged in BLI
T4 sequence: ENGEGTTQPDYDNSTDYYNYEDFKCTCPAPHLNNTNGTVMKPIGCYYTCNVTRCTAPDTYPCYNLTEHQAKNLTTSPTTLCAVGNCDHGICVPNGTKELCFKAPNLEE

P546_AMBCA = biological target: T5, P546_AMBCA (Amblyomma cajennense, UniProt A0A023FBW7 22-118); test: BLI
T5 construct: His-tagged in BLI
T5 sequence: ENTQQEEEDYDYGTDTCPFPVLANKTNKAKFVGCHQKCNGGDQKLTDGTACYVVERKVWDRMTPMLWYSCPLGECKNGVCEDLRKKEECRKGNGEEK

P974_AMBCA = biological target: T6, P974_AMBCA (Amblyomma cajennense, UniProt A0A023FDY8 22-118); test: BLI
T6 construct: His-tagged in BLI
T6 sequence: T5 sequence with E8Q, S69E, E88D

CXCL8_HUMAN = biological target: T7, CXCL8_HUMAN (human, UniProt P10145 28-99); test: YSD
T7 sequence: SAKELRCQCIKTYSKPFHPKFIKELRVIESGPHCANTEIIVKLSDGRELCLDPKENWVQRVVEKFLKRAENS

CXCL10_HUMAN [2] = biological target: T2, CXCL10_HUMAN; test: YSD FACS
P672_RHIPU = biological target: T8, P672_RHIPU (Rhipicephalus pulchellus, UniProt L7MC74 22-125); test: BLI
T8 sequence: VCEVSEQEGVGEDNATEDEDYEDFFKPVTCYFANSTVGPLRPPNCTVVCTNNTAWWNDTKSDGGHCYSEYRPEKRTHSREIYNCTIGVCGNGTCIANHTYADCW

CCL25_HUMAN = biological target: T9, CCL25_HUMAN (human, UniProt O15444 24-150); test: YSD
T9 sequence: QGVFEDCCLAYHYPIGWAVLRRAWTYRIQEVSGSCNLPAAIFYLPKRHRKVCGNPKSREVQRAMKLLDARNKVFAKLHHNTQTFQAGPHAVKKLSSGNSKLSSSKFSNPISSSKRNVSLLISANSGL

B1: P1126_AMBCA (other)
chain: KPQILQRTDKSTDSEWDPQTCPETCIPSKNITCSDGCVCVKLGEEEEGTCFNMTGVDWLGSPSDD
notes: yeast surface display
CXCL9_HUMAN
  % cells over threshold fluorescence: 56%

B2: P1219_IXORI (other)
chain: ASLAKETEDTTLPARALVDSPDSDNCSSPQLPYFDELTYMPLGFLAVNCTKTCPVGKNGTVVNGNKCIVTWSILDVSTITVLVGSCKNGYCISDGSSECRNITLAGEDSQEEEEEAEEDEEEDDGDEEEDEEEDEEENDDD
notes: yeast surface display
CXCL10_HUMAN [1]
  binding result: binds

B3: P1095_IXORI (other)
chain: HSPVAGSEVQKLTSDPNDDIDVSYCGMNCTVVNGKSDECSENCKCLHEGDDPKGICVAITYFGDWGDPNDDPKINEATPQTQIFEKKRK
notes: yeast surface display
CXCL12_HUMAN
  % cells over threshold fluorescence: 47%

B4: P1124_IXORI (other)
chain: DSKGTSDSQDSTKSIKVDFCETNCTKTDGGWTGCTGDCICVSVGDSIEGRCMDFG
notes: yeast surface display
CXCL9_HUMAN
  % cells over threshold fluorescence: 31%

B5: P1086_IXORI (other)
chain: GSKGQRASQVSETSITAEFCDTSCTQGTDKTWSGCSGDCFCVHVGNDTEGRCMRWDGDYPSAEEEE
notes: yeast surface display
CXCL9_HUMAN
  % cells over threshold fluorescence: 54%

B6: CCL24_HUMAN (ligand)
chain: VVIPSPCCMFFVSKRIPENRVVSYQLSSRSTCLKAGVIFTTKKGQQFCGDPKQEWVQRYMKNLDAKQKKASPRARAVA
P985_AMBPA
  Kd: 41 nM
P991_AMBCA
  Kd: 6.54 nM

B7: P1080_IXORI (other)
chain: SAGSKGSSAPQSSGDSVVAEFCDTNCTMKKDGKWTECNGDCFCVHVGNETVGRCMRLDGDYDYTSSKTTRRNKKTRNGLCRLDRNRTTVDYPERNTREP
notes: yeast surface display
CXCL9_HUMAN
  % cells over threshold fluorescence: 49%
CXCL12_HUMAN
  % cells over threshold fluorescence: 53%

B8: CCL22_HUMAN (ligand)
chain: GPYGANMEDSVCCRDYVRYRLPLRVVKHFYWTSDSCPRPGVVLLTFRDKEICADPRVPWVKMILNKLSQ
P546_AMBCA
  Kd: 27 nM
P974_AMBCA
  Kd: 16.5 nM
P991_AMBCA
  Kd: 3.97 nM

B9: CCL27_HUMAN (ligand)
chain: FLLPPSTACCTQLYRKPLSDKLLRKVIQVELQEADGDCHLQAFVLHLAQRSICIHPQNPSLSQWFEHQERKLHGTLPKLNFGMLRKMG
P991_AMBCA
  Kd: 38.9 nM

B10: P1074_IXORI (other)
chain: GSKESSAHQSSDDSIKAEFCDAKCTMKTDGKWTQCHGGCFCVHVGNETEGRCMRLDGDYDYPSTQPEE
notes: yeast surface display
CXCL9_HUMAN
  % cells over threshold fluorescence: 35%

B11: P1224_IXORI (other)
chain: SDLCKMEAESSPFKLPQSSLLDAPDEEGCKYQLLFVEAEGPLVVNCTKDCPNGKIRTVVEGELCIAMVKTSSSGEATGLVGSCKRGSCVKKDDPCRTFTLSEEGDDDEEDEEEEEDEEEDEEEDEEEEEEDEEEED
notes: yeast surface display
CXCL10_HUMAN [1]
  binding result: binds

B12: P993_AMBPA (other)
chain: HRHYDPNEPCLIAGLKTPRDALPAGCRYDCMIKKNQKLRDGLLCLDVPEKVVKRMVNYLNYSCPLGTCRKGICKRKHRNVRCQKYPVFYMSPPK
notes: yeast surface display
CXCL8_HUMAN
  binding result: binds

B13: P458_IXORI (other)
chain: GSKQPGAAGSSSDSVEAVFCPTNCTKGTNGAWSGCSDDCICVHVGENTEGSCMKFSGDYDYPTPEA
notes: yeast surface display
CXCL9_HUMAN
  % cells over threshold fluorescence: 37%

B14: P1283_IXORI (other)
chain: KEPEDTTLPPGALVDSPDSDNCSSPHLPYFDETTNMWMGFLAVNCTKKCPVGKHVTVVDGNKCIGTWSFLDELTITVLVGSCKDGFCETDGSSECRNITLAEEDSQEEEGAAAEEEDEEDEEDEEEEEAEEEREDDHDDA
notes: yeast surface display
CXCL10_HUMAN [1]
  binding result: binds

B15: P1030_AMBPA (other)
chain: GPPSIPGNESIPGCGDAGTTTAPEDNPKHYGTLTDKKGCTLPIIGTWMTAVDHQHLQGTRGERRGPTGKVNLPASCRKNCHGRQEILRDGIPCRKVVGNPKGSKKHLKSGCLRGKCLAGQCVNDGRRISCYVPRNITDTEPTPGLLAE
notes: yeast surface display
CXCL8_HUMAN
  binding result: binds

B16: P1134_IXORI (other)
chain: NEEVFTVEYCGMNCTQKSDGTWTECSGKNKDCRCYHESDAREGLCLSTEYTDFSQFETPSNSDLEAATPRPRKTLYPVRNPHGPKTRGLGYDKRILRDRVKFLI
notes: yeast surface display
CXCL10_HUMAN [2]
  % cells over threshold fluorescence: 66%

B17: P1096_IXORI (other)
chain: HTTVTGSVEGKPNNPNEDIEVSYCRMNCTVENGVSSACSGDCVCVHRDNEPNGICVEITYFGDFGDPSQDPSIDEAAPRESVSKRRSNGES
notes: yeast surface display
CXCL10_HUMAN [2]
  % cells over threshold fluorescence: 50%

B18: CCL23_HUMAN (ligand)
chain: RVTKDAETEFMMSKLPLENPVLLDRFHATSADCCISYTPRSIPCSLLESYFETNSECSKPGVIFLTKKGRRFCANPSDKQVQVCMRMLKLDTRIKTRKN
P672_RHIPU
  Kd: 10 nM
P991_AMBCA
  Kd: 5.58 nM

B19: P1100_IXORI (other)
chain: GSKGSSASQSSDNSVVAKFCDTNCTINEGGKWTECKGGCFCVHVGNETVGRCMKLDGDYDYPSPKPEE
notes: yeast surface display
CXCL9_HUMAN
  % cells over threshold fluorescence: 55%

B20: P1220_IXORI (other)
chain: GSTPSAMKTEDILKVLGSTSSLENHTDSSHCRYQELLDITKNIENAGFLAINCQRSCPNGKQTMVEGYGCIFKIKHATKRGKVKVKEGSCRKGACVRGSTRPPWRLLVLLGESKEEEFL
notes: yeast surface display
CCL25_HUMAN
  binding result: binds
